B1: CPP32 (protein)
chain: MENTENSVDSKSIKNLEPKIIHGSESMDSGISLDNSYKMDYPEMGLCIIINNKNFHKSTGMTSRSGTDVDAANLRETFRNLKYEVRNKNDLTREEIVELMRDVSKEDHSKRSSFVCVLLSHGEEGIIFGTNGPVDLKKITNFFRGDRCRSLTGKPKLFIIQACRGTELDCGIETDSGVDDDMACHKIPVEADFLYAYSTAPGYYSWRNSKDGSWFIQSLCAMLKQYADKLEFMHILTRVNRKVATEFESFSFDATFHAKKQIPCIVSMLTKELYFYH
B2: ICEγ (protein)
chain: MADKVLKEKRKLFIRSMGEAPQAVQDNPAMPTSSGSEGNVKLCSLEEAQRIWKQKSAEIYPIMDKSSRTRLALIICNEEFDSIPRRTGAEVDITGMTMLLQNLGYSVDVKKNLTASDMTTELEAFAHRPEHKTSDSTFLVFMSHGIREGICGKKHSEQVPDILQLNAIFNMLNTKNCPSLKDKPKVIIIQACRGDSPGVVWFKDSVGVSGNLSLPTTEEFEDDAIKKAHIEKDFIAFCSSTPDNVSWRHPTMGSVFIGRLIEHMQEYACSCDVEEIFRKVRFSFEQPDGRAQMPTTERVTLTRCFYLFPGH
B3: Mch2β (protein)
chain: MSSASGLRRGHPAVSTVSHADADCFVCVFLSHGEGNHIYAYDAKIEIQTLTGLFKGDKCHSLVGKPKIFIIQACRGNQHDVPVIPLDVVDNQTEKLDTNITEVDAASVYTLPAGADFLMCYSVAEGYYSHRETVNGSWYIQDLCEMLGKYGSSLEFTELLTLVNRKVSQRRVDFCKDPSAIGKKQVPCFASMLTKKLHFFPKSN
B4: Mch2α (protein)
chain: MSSASGLRRGHPAGGEENMTETDAFYKREMFDPAEKYKMDHRRRGIALIFNHERFFWHLTLPERRRTCADRDNLTRRFSDLGFEVKCFNDLKAEELLLKIHEVSTVSHADADCFVCVFLSHGEGNHIYAYDAKIEIQTLTGLFKGDKCHSLVGKPKIFIIQACRGNQHDVPVIPLDVVDNQTEKLDTNITEVDAASVYTLPAGADFLMCYSVAEGYYSHRETVNGSWYIQDLCEMLGKYGSSLEFTELLTLVNRKVSQRRVDFCKDPSAIGKKQVPCFASMLTKKLHFFPKSN

Sequence of human PARP, P09874 (P09874 whole entry, looked up): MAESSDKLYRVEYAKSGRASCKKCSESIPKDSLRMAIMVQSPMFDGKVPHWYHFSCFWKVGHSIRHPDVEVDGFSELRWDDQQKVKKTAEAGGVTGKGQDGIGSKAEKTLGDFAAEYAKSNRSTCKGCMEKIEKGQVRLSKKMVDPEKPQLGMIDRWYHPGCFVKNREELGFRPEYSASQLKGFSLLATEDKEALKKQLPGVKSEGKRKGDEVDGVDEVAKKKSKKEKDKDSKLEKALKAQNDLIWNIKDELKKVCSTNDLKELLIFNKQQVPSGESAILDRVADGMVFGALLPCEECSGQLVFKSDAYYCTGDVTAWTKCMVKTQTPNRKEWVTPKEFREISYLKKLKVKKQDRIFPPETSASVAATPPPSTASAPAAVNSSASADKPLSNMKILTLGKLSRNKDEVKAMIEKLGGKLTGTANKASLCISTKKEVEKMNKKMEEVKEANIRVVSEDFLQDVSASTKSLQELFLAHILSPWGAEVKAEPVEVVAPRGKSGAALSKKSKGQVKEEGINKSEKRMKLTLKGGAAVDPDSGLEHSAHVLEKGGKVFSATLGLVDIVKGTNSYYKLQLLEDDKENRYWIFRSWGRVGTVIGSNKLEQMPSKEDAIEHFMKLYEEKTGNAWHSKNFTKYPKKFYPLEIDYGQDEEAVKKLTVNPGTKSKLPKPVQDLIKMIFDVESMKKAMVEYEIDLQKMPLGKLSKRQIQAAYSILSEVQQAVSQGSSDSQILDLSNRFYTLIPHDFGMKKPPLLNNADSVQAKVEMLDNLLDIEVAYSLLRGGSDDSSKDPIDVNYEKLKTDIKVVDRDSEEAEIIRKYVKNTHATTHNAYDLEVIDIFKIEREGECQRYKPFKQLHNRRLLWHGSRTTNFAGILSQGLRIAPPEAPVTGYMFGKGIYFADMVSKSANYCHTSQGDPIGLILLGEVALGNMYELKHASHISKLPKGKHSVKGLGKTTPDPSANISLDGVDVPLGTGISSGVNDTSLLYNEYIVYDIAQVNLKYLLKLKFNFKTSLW

The data set addresses human PARP, P09874.
In the case of B1, the “cleavage of PARP in vitro, Western blot” value was “CPP32 cleaved PARP to generate a major band of ˜90 kDa and a minor band of 57 kDa”.
The value for B2 was “PARP was not cleaved by Mch2β or ICEγ”; that for B3 was “PARP was not cleaved by Mch2β or ICEγ”; that for B4 was “Mch2α also cleaved PAR: to generate a major product of ˜83 kDa and a minor product of ˜57 kDa similar to that obtained with CPP32”.
